Test results taken from patent US20230365684A1 (Janssen / Centocor, published 2023).
Blank lines part the entries; values can stand above or below the binder they belong to.

How the values were obtained:
[1] = target: T1, human CD33 on cells (MOLM-13, Kasumi-1, OCI-AML-3, Kasumi-3) (human, UniProt P20138 18-364); assay: FACS binding on MOLM-13 cells
T1 construct: whole, on cells; also called CD33 expressing cells; CD33+ cell lines

[2] = target: T1, human CD33 on cells (MOLM-13, Kasumi-1, …); assay: FACS binding on OCI-AML-3 cells
[3] = target: T1, human CD33 on cells (MOLM-13, Kasumi-1, …); assay: FACS binding on Kasumi-1 cells
[4] = target: T1, human CD33 on cells (MOLM-13, Kasumi-1, …); assay: flow cytometry on MOLM-13 cells, 4 °C, serial dilutions of the antibody
Experimental: (§1) Cells were harvested, washed once with PBS and then stained with the fixable viability dye at room temperature for 30 min. Following incubation, cells were washed twice with FACS buffer (PBS+2% FBS). Cells were then used for binding assay with test antibodies. 100,000 cells were stained with the test antibodies in a 100 ul staining volume. Antibodies for staining were diluted in FACS buffer and incubated with the cells for 40 mins on ice, followed by washing 2X with FACS buffer. Test antibodies were then detected using the PE conjugated Goat F(ab′)2 Anti-Human IgG-Fc (ab98596; Abcam) for 40 minutes on ice. Following washing, data was acquired on the Novocyte flow cytometer (ACEA). Cells were gated on FSC/SSC, followed by live cell gating and doublet discrimination. Data was analyzed using Flow Jo (BD).
(§2) Median fluorescence intensity values were used to plot a 4-parameter non-linear regression analysis curve after subtracting the MFI of the secondary only sample.
(§3) The binding EC₅₀ values of CD33 antibodies to high (MOLM-13), medium (Kasumi-1) and low (OCI-AML-3) cell lines were assayed. Binding was carried out at 4° C. with serial dilutions of the antibody.

[5] = target: T1, human CD33 on cells (MOLM-13, Kasumi-1, …); assay: flow cytometry on OCI-AML-3 cells, 4 °C, serial dilutions of the antibody
Experimental: as §1, §2, §3

[6] = target: T1, human CD33 on cells (MOLM-13, Kasumi-1, …); assay: flow cytometry on OCI-AML-3 cells, 4 °C, detection with PE goat F(ab')2 anti-human IgG-Fc [contd]

T1 sequence (P20138 18-364): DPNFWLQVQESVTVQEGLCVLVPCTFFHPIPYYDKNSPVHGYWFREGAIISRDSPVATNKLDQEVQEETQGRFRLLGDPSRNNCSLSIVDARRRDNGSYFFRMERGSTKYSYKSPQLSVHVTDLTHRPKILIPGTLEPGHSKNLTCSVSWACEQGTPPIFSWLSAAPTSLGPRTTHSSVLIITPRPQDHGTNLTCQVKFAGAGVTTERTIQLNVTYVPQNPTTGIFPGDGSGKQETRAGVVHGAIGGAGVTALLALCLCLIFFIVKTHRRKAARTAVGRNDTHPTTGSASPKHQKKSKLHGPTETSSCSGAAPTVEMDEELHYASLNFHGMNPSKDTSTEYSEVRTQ

EC50 [1]: 134 nM
EC50 [2]: 16.4 nM
EC50 [3]: 82.2 nM
B1: C33B904 (antibody, V domains shown)
VH: EVQLVESGGGLVQPGRSLRLSCAASGFTFDDYAMHWVRQAPGKGLEWVSGIGWSGGSIVYADSVKGRFTISRDNAKNSLYLQMNSLRAEDTALYYCAKDSPYGDFFDYWGQGTLVTVSS
VL: DIVMTQSPDSLAVSLGERATINCKSSQTVFYSSNNKNYLAWYQQKPGQPPKLLISWASTRKSGVPDRFSGSGSGTDFTLTVSSLQAEDVAVYYCQHYYSTPYTFGQGTKLEIK
notes: also called anti-CD33 antibody (clone C33B904); anti-CD33 clone C33B904

EC50 [4]: 56 nM
EC50 [5]: 0.6 nM
EC50 (read off the curve) [6]: ~0.09 µg/mL
B2: C33B1477 (antibody, V domains shown)
VH: EVQLVESGGGLVQPGGSLKVSCEASGFTFSVSAIHWVRQASGKGLEWIGRIRSKGNSYATAYAASVKGRFTISRDDSKNTAYLQMDSLKTEDTAVYYCTRHNDKWNYYGLDVWGQGTTVTVSS
VL: DIVMTQSPLSLPVTPGEPASISCKSSQSLLFSNGYKFLDWYLQRPGQSPQLLIYLGSYRASGVPDRFSGSGSGTDFTLKISRVEAEDVGLYYCMQALQTPPTFGGGTKVEIK
notes: also called sCD33B1477
